Data from article PMC12148588 (2025).
Residue numbers refer to the chain shown, from its start. Where two headings read alike, the source gives them in different places.

Legend:
[1] = target: T1, SARS-CoV-2 RBD of the Wuhan strain (Acro Biosystems SPD-C82E9-25) (SARS-CoV-2, UniProt P0DTC2); test: SPR
[2] = target: T1, SARS-CoV-2 RBD of the Wuhan strain …; test: SPR; remark: listed apart in the source

B1: MB025_A07K (antibody, V domains shown)
VH: EVQLVESGGDLVQPGGSLRLSCAASEFIVSSNYMSWVRQTPGKGLEWISVLYSGGSTFYADSVKGRFTISRDNSKNTLYLQMNSLRVEDTAVYYCARDFGEFWFDYWGQGTLVTVSS
VL: EIVLTQSPGTLSLSPGERATLSCRASQTINSYLAWYQQKPGQAPRLLIYGASSRATGIPDRFSGSGSGTDFTLTISRLEPEDFAVYYCQQYGNSPRTFGQGTKVEIK
Kd [1]: 0.159 nM

B2: MB043_CL39 (antibody, V domains shown)
VH: EVQLVETGGGLIHPGGSLRLSCAASEFIVSYNYMSWVRQAPGKGLEWVSVIYSGGSTFYADAVKGRFTISRDSSKNTLDLLMNSLRVEDTAVYYCARVLPSNTDYFDYWGQGILVTVSS
VL: QSVLTQPPSVSGATGQRVTISCTGSNSNIGAGSDVHWYQQLPGAAPKLLIYVNNNRPSGVPDRFSGSKSGTSASLAITGLQAEDEADYYCQSYDSSLSGYVFGTGTKVTVL
Kd [2]: 0.0273 nM

B3: MB027_D06L (antibody, V domains shown)
VH: B2 VH with H13Q, E26G, Y31S, V50I, S73N, L81Q, V87A, S101T, N102S
VL: B2 VL with T14P, Q40H, A44T, K47T, V52S, N54S, G99T
Kd [2]: 7.17 nM

B4: MB025_A09L (antibody, V domains shown)
VH: EVQLVESGGGLVQPGGSLRLSCAASGFSVSIFYMNWVRQAPGKGLEWVSSVYSGETTYYADSVRGRFTISRDNSKSTLYLQMNSLRPEDTAVYYCARGVDYRTNRTEGGAFDIWGQGTMVTVSS
VL: QSALTQPASVSGSPGQSIPISCTGTSSDFGNYNLISWYQQHPGKAPKLMIYEGTKRPSGVSDRFSGSKSANTASLTISGLQAEDEADYYCCSYAGSSTWMFGGGTKLTVL
Kd [1]: 0.00491 nM
